Data reported in PMC11728977, “Crystallographic, kinetic, and calorimetric investigation of PKA interactions with L-type calcium channels and Rad GTPase” (The Journal of Biological Chemistry, 2024).

How the values were obtained:
[1] = tested on: CC(C)C[C@H](NC(=O)[C@H](Cc1c[nH]cn1)NC(=O)[C@H](Cc1ccccc1)NC(=O)[C@H](CO)NC(=O)[C@H](C)NC(=O)[C@H](CCCNC(=N)N)NC(=O)[C@H](CCCNC(=N)N)NC(=O)CNC(=O)[C@H](CC(C)C)NC(=O)[C@H](CO)NC(=O)[C@H](C)NC(=O)[C@H](CO)NC(=O)[C@H](CCCNC(=N)N)NC(=O)[C@H](CC(C)C)NC(=O)[C@H](Cc1ccccc1)NC(=O)CNC(=O)[C@@H](N)CCCNC(=N)N)C(=O)O; assay: purified protein, by the assay type; conditions: other: ADP-Glo; 3 nM PKAc, 1 mM ATP, 5 mM Mg2+, substrate 0-256 μM, room temperature 30 min; Michaelis-Menten fit; mean ± SD of n = 3 or 4; pH 7.4
Method: (§1) We used enzyme kinetics to investigate the activity of catalytic subunit of PKA (PKAc) toward the three target sites within the C terminus of CaV1.2. We performed discontinuous kinase assays using an ADP-GloMax Assay kit.
(§2) Kinase assays were conducted using an ADP-Glo Kinase Assay Kit (Promega). […] Therefore, we performed assays with excess ATP (1 mM) and Mg^2+ (5 mM) to saturate PKAc prior to substrate binding. Reagents were prepared as described in the kit, aliquoted, and frozen at −20 °C prior to use. Reactions were conducted in 384-well solid white polystyrene microplates (Corning). Peptide substrates and EFPreIQ were dissolved and/or diluted to 800 μM using 50 mM Hepes (pH 7.4), 150 mM KCl, 5 mM MgCl2, and 4 mM TCEP. […] For peptides lacking tryptophan, the amount of volume needed to achieve a concentration of 800 μM was calculated prior to dissolving. The peptides/substrate was 2-fold serially diluted using the same buffer to create 11 reactions per curve ranging from 0 to 256 μM. ATP was added to each reaction to achieve a final concentration of 1 mM. Reactions were initiated by the addition of thawed PKAc at a final concentration of 3 nM at a final well volume of 20 μl. After allowing reactions to occur at room temperature for 30 min, 3 × 5 ml from each reaction in a curve was taken and mixed with 5 ml ADP-Glo Reagent for a total of three technical replicates per biological replicate. After 40 min, 10 ml of kinase detection reagent was added to each technical replicate and, after waiting 60 min, relative luminescence unit were measured using a VICTOR X4 Multilabel Plate Reader (PerkinElmer).
(§3) The relative luminescence unit values were converted to specific activity values via interpolation of a standard curve that was created in accordance with the manufacturer’s protocol. The three technical replicates were averaged to calculate a biological replicate value and plotted against peptide concentration using GraphPad 9 (Prism) software (https://www.graphpad.com/updates/prism-900-release-notes). Technical replicate values resulting from experimental error were removed from the dataset and subsequent averaging. […] The Michaelis–Menten kinetics fitting function was used to generate a nonlinear regression to calculate both a Km constant and Vmax value for each biological replicate curve. These Km constant and Vmax values were averaged and SDs are reported. Figures displaying data points and Michaelis–Menten curves depict the average specific activity values calculated from all biological replicates in the three or four experiments (n = 3 or n = 4) per peptide (n = 4 for Ser1981 and Ser272 peptides, n = 3 for all others).

[2] = tested on: C[C@H](NC(=O)CN)C(=O)NCC(=O)N[C@@H](CCCNC(=N)N)C(=O)N[C@@H](CCC(=O)O)C(=O)N[C@@H](CCCNC(=N)N)C(=O)N[C@@H](CC(=O)O)C(=O)N[C@@H](CCCNC(=N)N)C(=O)N[C@@H](CCCNC(=N)N)C(=O)N[C@@H](CCCNC(=N)N)C(=O)NCC(=O)N[C@@H](CO)C(=O)N[C@H](C(=O)N1CCC[C@H]1C(=O)N[C@@H](Cc1c[nH]c2ccccc12)C(=O)O)[C@@H](C)O; assay: purified protein, by the assay type; conditions: other: ADP-Glo; 3 nM PKAc, 1 mM ATP, 5 mM Mg2+, substrate 0-256 μM, room temperature 30 min; Michaelis-Menten fit; mean ± SD of n = 3 or 4; pH 7.4
Method: as §1, §2, §3

Substance: PKAc (catalytic subunit of PKA, PKAcα 16-351) (Mus musculus)
- Km [1]: 8.1 ± 2.5 µM
- kcat [1]: 15.5 ± 1.2 s⁻¹
- kcat/Km [1]: 1.9e+06 ± 600000 M⁻¹ s⁻¹
- Km [2]: 19.0 ± 6.7 µM
- kcat [2]: 16.2 ± 0.8 s⁻¹
- kcat/Km [2]: 900000 ± 300000 M⁻¹ s⁻¹
